Measured values from paper PMC5663709.

How the values were obtained:
[1] = target: cell surface-expressed H3N2 WN/05 HA trimer (influenza A virus A/Wisconsin/67/2005 (H3N2)); assay: FACS
[2] = target: recombinant hemagglutinin (HA) trimer of H3N2 A/Wisconsin/67/2005, ectodomain (influenza A virus A/Wisconsin/67/2005 (H3N2)); assay: ELISA
[3] = target: recombinant hemagglutinin (HA) trimer of H1N1 A/California/07/2009, ectodomain (influenza A virus A/California/07/2009 (H1N1)) (UniProt C3W5X2); assay: ELISA
[4] = target: recombinant hemagglutinin (HA) trimer of H5N1 A/Vietnam/1203/2004, ectodomain (influenza A virus A/Vietnam/1203/2004 (H5N1)) (UniProt Q6DQ33); assay: ELISA
[5] = target: recombinant hemagglutinin (HA) trimer of H7N9 A/Anhui/1-BALF_RG17/2013, ectodomain (influenza A virus A/Anhui/1-BALF_RG17/2013 (H7N9)); assay: ELISA

Row | Substance | EC50 [1] [µg/mL] | EC50 [2] [µg/mL] | EC50 [3] [µg/mL] | EC50 [4] [µg/mL] | EC50 [5] [µg/mL]
1 | C05 | 0.13 | 0.00844 |  |  | 
2 | CR8020 | 0.569 | 0.0194 |  |  | 
3 | F10 |  |  | 0.0122 | 0.021 | 
4 | FI6V3 | 0.065 | 0.0789 | 0.0107 | 0.00648 | 0.314
